Experimental data: patent publication US20210213055A1 (Stanford University, published 2021)
Ends that are not written are not given here.

Columns and labels:
[1] = biological target: T1, Siglec-10 expressed on human donor-derived macrophages (human, UniProt Q96LC7 17-697); assay: cell-based or functional assay
T1 sequence (looked up): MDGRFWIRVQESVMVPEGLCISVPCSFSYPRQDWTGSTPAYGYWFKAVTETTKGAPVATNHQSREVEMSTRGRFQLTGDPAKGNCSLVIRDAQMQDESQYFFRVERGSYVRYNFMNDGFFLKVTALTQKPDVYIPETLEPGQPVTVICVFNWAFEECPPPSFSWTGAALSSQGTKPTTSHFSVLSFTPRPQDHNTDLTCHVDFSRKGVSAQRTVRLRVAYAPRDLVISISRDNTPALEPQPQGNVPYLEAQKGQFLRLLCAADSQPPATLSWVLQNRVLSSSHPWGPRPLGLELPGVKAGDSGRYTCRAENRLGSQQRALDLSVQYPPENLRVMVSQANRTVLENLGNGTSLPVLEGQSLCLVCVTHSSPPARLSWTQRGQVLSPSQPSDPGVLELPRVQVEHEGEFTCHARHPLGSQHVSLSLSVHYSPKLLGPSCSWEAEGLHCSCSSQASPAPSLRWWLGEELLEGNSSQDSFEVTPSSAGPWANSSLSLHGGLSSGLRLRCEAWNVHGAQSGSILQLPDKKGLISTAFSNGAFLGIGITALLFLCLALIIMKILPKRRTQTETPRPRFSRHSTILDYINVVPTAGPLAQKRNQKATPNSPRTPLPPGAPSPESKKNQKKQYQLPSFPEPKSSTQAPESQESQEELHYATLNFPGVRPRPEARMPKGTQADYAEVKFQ

recombinant Siglec5-Fc = biological target: T2, recombinant Siglec5-Fc (human, UniProt O15389 17-434, limits assumed); assay: flow cytometry, Fc-fusion on MCF-7 cells, anti-human Fc detection
T2 construct: Bought reagent; not shown: human Fc
T2 sequence (looked up): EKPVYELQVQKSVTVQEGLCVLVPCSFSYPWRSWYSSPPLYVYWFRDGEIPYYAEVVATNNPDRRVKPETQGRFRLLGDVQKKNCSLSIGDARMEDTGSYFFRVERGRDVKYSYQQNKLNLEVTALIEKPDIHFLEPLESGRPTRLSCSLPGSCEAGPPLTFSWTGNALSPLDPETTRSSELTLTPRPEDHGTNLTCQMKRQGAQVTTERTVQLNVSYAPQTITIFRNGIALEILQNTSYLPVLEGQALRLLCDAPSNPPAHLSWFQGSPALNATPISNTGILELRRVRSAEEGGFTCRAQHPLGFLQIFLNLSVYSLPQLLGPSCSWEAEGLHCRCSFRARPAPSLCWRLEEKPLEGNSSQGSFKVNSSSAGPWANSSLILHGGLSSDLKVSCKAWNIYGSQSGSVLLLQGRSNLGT
Description: Siglec10 has been reported to interact with the highly sialylated form of CD24. […] Indeed, we observed that CD24 deletion alone is insufficient to completely abrogate Siglec-10-Fc binding in the presence of surface sialylation (FIG. 15a,b).
Neuraminidase treatment and recombinant Siglec binding assay. MCF-7 cells were treated with either neuraminidase (from Vibrio cholerae, Roche) (1×10⁶ cells/100 U/mL) or neuraminidase that was heat inactivated for 15 min at 95° C. prior to incubation for 1 h at 37° C. in serum-free medium, after which reactions were quenched with serum prior to analysis. Recombinant Siglecs (10, 5, and 9) were purchased as human Fc-fusion proteins from R&D Systems. Binding of recombinant Siglecs versus human IgG1 control was assayed at a concentration of 1×10⁵ cells/1 mg/mL at 37° C. for 1 h, in the absence of EDTA. Cells were stained with a fluorescently-conjugated anti-human Fc antibody (Biolegend) to enable the measurement of recombinant Siglec binding by flow cytometry.

phagocytosis of CD24-expressing human tumors [1]: ≤ 13 fold
B1: CD24 expressed on human cancer cells (MCF-7 and other CD24+ cells) (ligand, UniProt P25063 27-59, looked up)
chain: SETTTGTSSNSSQSTSNSGLAPNPTNATTKAAG
modifications: also: heavily glycosylated, sialylated, GPI-anchored
notes: whole, on cells; also called Small Cell Lung Carcinoma Cluster 4 Antigen
binding result (recombinant Siglec5-Fc): no binding (tested: 1×10^5 cells/1 mg/mL)
